US20230192896A1

Experiments:
Assay in all cases: not given (FIG. 24A)
[1] = target: FIX zymogen (non-activatable FIX) (UniProt P00740)
[2] = target: FX zymogen (UniProt P00742)
[3] = target: activated Factor X (FXa) (Homo sapiens (Human)) (UniProt P00742)
[4] = target: free FIXa (activated Factor IX) (human) (UniProt P00740)

Measured: Kd

FX zymogen, sequence (P00742 41-179, chain 1 of 2): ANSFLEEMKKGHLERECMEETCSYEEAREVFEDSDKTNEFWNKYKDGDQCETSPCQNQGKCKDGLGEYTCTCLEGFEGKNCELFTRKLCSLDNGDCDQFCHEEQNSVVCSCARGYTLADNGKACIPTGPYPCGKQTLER
FX zymogen, sequence (P00742 183-488, chain 2 of 2): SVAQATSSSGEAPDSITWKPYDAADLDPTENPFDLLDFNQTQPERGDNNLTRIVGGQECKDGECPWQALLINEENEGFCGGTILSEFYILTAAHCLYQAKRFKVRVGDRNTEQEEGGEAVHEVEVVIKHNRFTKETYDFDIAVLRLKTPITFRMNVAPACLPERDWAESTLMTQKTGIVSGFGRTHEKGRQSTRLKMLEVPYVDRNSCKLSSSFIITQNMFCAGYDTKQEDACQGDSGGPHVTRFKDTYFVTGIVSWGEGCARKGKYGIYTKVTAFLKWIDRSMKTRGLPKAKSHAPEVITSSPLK
activated Factor X (FXa) (Homo sapiens (Human)), sequence (P00742 41-179, chain 1 of 2): as the sequence (P00742 41-179, chain 1 of 2) above
activated Factor X (FXa) (Homo sapiens (Human)), sequence (P00742 235-488, chain 2 of 2): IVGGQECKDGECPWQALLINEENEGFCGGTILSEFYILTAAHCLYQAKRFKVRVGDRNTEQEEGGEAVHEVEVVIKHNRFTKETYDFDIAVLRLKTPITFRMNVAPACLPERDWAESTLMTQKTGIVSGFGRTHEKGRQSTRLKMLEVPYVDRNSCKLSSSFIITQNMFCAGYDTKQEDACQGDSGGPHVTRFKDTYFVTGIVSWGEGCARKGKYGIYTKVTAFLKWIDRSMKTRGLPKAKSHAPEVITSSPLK

emicizumab (ACE910) sequence identical bispecific antibody (emicizumab biosimilar)
1 µM: all assays above
